{
  "source": "patent US9409976B2",
  "about": "“CDIM binding proteins and uses thereof” (IGM BIOSCIENCES, INC., priority 2012, dated 2016)",
  "key": {"[1]": {"assay": "ELISA binding to non-CDIM antigen chondroitin sulfate", "details": "maximal reaction (OD450 nm), IgM at 10 μg/ml"}, "ds DNA": {"system": "ds DNA", "assay": "ELISA binding to non-CDIM antigen dsDNA", "details": "maximal reaction (OD450 nm), IgM at 10 μg/ml", "experimental": "(§1) This example describes the binding specificity of the CDIM binding proteins for antigens other than CDIM. The antibodies were purified by affinity chromatography. Antibodies were tested across a broad dose range against a panel of antigens available in commercially available ELISA kits. ELISA plates pre-coated with the antigens, ssDNA (Inova Diagnostics, Inc, San Diego, Calif.), dsDNA (Inova Diagnostics, Inc., San Diego, Calif.), cardiolipin (Inova Diagnostics, Inc., San Diego, Calif.) MDA-LDL (malondialdehyde modified low density lipoprotein) (Rocky Mountain Diagnostics, Colorado Springs, Colo.) were purchased from various vendors. Lipid A (Avanti Polar Lipids, Alabaster, Ala.) was purchased as an antigen, dissolved in ethanol and diluted in 100 mM Na carbonate buffer at pH 9.5 prior to coating onto ELISA plates. Anti-CDIM antibodies were used at concentrations indicated and ELISA was performed according to manufacturers recommendations. Briefly, plates were blocked with BSA-milk powder for 1 hour, followed by washing. The disclosed antibodies were added at the concentrations indicated. The antibodies were allowed to bind for 1.5 hours at room temperature followed by a wash step. The HRP-conjugated anti-human IgM antibody was added, followed by substrate addition. Results were quantified using absorbance at 450 nm (Bio-Tek Synergy HT). […]"}, "ss DNA": {"system": "ss DNA", "assay": "ELISA binding to non-CDIM antigen ssDNA", "details": "maximal reaction (OD450 nm), IgM at 10 μg/ml", "experimental": "as §1"}, "[2]": {"assay": "ELISA binding to non-CDIM antigen LPS", "details": "maximal reaction (OD450 nm), IgM at 10 μg/ml", "experimental": "as §1"}, "[3]": {"assay": "ELISA binding to non-CDIM antigen heparan sulfate", "details": "maximal reaction (OD450 nm), IgM at 10 μg/ml", "experimental": "as §1"}, "Human pro-B NALM-6 cells": {"system": "Human pro-B NALM-6 cells", "assay": "Human complement dependent cytotoxicity (CDC) assay, CCK8", "format": "cell-based", "details": "Nalm-6 cells with human complement, 24 hours, supernatant containing expressed antibody", "text": "“Complement-dependent cytotoxicity” or “CDC” refers to the lysis of a target cell in the presence of complement. Activation of the classical complement pathway is initiated by the binding of the first component of the complement system (CIq) to antibodies, which are bound to their cognate antigen. To assess complement activation, a CDC assay, as described in Hinton et al, J. Immunol. 2006 Jan. 1; 176(1):346-56, may be performed. Briefly, this example describes how the cytotoxicity of the CDIM binding proteins was investigated. Human pro-B NALM-6 cells (50,000) were plated in a 96-well flat bottom microtiter plate. […] After 24 hours, a colorimetric substrate CCK8 was added for 3 hours and then the optical density (OD) was measured at 450 nm wavelength on a Microtiter Plate Reader. Quantification of the increase in OD is directly proportional to viable proliferating NALM-6 cells. […] The IC50 was calculated for each antibody using the same approach as described above.\nTABLE 2 summarizes the data shown in FIG. 6 and FIGS. 7A-7F for the CDIM binding proteins comprising variable heavy chains H1, H2, H3, H4, H5, H6, H7, H9, H10, H11, H12, H13, H14, H15, H16, H17, H18, H19, H20, and H21, respectively. The ELISA value refers to the concentration of IgM determined in the conditioned media following transient transfection of IgM heavy and light chains. […]"}, "[4]": {"assay": "ELISA binding to panel of antigens other than CDIM (FIGS. 8 and 9)", "details": "broad dose range, absorbance at 450 nm, listed as MAb 216", "text": "FIG. 8, panels A-E depict ELISA based binding data that is representative of the CDIM binding proteins to antigens other than CDIM. Results using the antigens single stranded DNA (ssDNA), double stranded DNA (dsDNA), lipid A, cardiolipin, and maleonaldehyde LDL (MDA-LDL) are shown in panels A-E, respectively.\nFIG. 9, panels A-F depict ELISA based binding data that is representative of the CDIM binding proteins to antigens other than CDIM. Results using the antigens single stranded DNA (ssDNA), double stranded DNA (dsDNA), lipopolysaccharide, cardiolipin, chondoitrin and heparan, are shown in panels A-F, respectively.\nThis example describes the binding specificity of the CDIM binding proteins for antigens other than CDIM. The antibodies were purified by affinity chromatography. Antibodies were tested across a broad dose range against a panel of antigens available in commercially available ELISA kits. ELISA plates pre-coated with the antigens, ssDNA (Inova Diagnostics, Inc, San Diego, Calif.), dsDNA (Inova Diagnostics, Inc., San Diego, Calif.), cardiolipin (Inova Diagnostics, Inc., San Diego, Calif.) MDA-LDL (malondialdehyde modified low density lipoprotein) (Rocky Mountain Diagnostics, Colorado Springs, Colo.) were purchased from various vendors. […] Results were quantified using absorbance at 450 nm (Bio-Tek Synergy HT)."}, "[5]": {"assay": "ELISA binding to non-CDIM antigen cardiolipin", "details": "maximal reaction (OD450 nm), IgM at 10 μg/ml", "experimental": "as §1"}},
  "note": "Entries after “also recorded” stand apart in the source; their conditions may differ.",
  "data": [
    {"molecule": "hm216: naturally occurring human monoclonal IgM CDIM binding antibody (SEQ ID NO: 108), used as experimental reference antibody (protein) QVQLQQWGAGLLKPSETLSLTCAVYGGSFSGYYWSWIRQPPGKGLEWIGEINHSGSTNYNPSLKSRVTISVDTSKNQFSLKLSSVTAADTAVYYCARARTARGSSIFDYWGQGTLVTVSSGSASAPTLFPLVSCENSPSDTSSVAVGCLAQDFLPDSITFSWKYKNNSDISSTRGFPSVLRGGKYAATSQVLLPSKDVMQGTDEHVVCKVQHPNGNKEKNVPLPVIAELPPKVSVFVPPRDGFFGNPRKSKLICQATGFSPRQIQVSWLREGKQVGSGVTTDQVQAEAKESGPTTYKVTSTLTIKESDWLSQSMFTCRVDHRGLTFQQNASSMCVPDQDTAIRVFAIPPSFASIFLTKSTKLTCLVTDLTTYDSVTISWTRQNGEAVKTHTNISESHPNATFSAVGEASICEDDWNSGERFTCTVTHTDLPSPLKQTISRPKGVALHRPDVYLLPPAREQLNLRESATITCLVTGFSPADVFVQWMQRGQPLSPEKYVTSAPMPEPQAPGRYFAHSILTVSEEEWNTGETYTCVVAHEALPNRVTERTVDKSTGKPTLYNVSLVMSDTAGTCY", "values": [
      {"measurement": "Chondroitin Sulfate relative reactivity", "setting": "[1]", "result": "++++ (The (+), (++), (+++) and (++++) scores are given for maximal ELISA values of 0.3 to 1, 1 to 2, 2 to 3 and above 3, respectively)"},
      {"measurement": "ds DNA relative reactivity", "setting": "ds DNA", "result": "++++ (The (+), (++), (+++) and (++++) scores are given for maximal ELISA values of 0.3 to 1, 1 to 2, 2 to 3 and above 3, respectively)"},
      {"measurement": "ss DNA relative reactivity", "setting": "ss DNA", "result": "++++ (The (+), (++), (+++) and (++++) scores are given for maximal ELISA values of 0.3 to 1, 1 to 2, 2 to 3 and above 3, respectively)"},
      {"measurement": "LPS relative reactivity", "setting": "[2]", "result": "++++ (The (+), (++), (+++) and (++++) scores are given for maximal ELISA values of 0.3 to 1, 1 to 2, 2 to 3 and above 3, respectively)"},
      {"measurement": "Heparan Sulfate relative reactivity", "setting": "[3]", "result": "++++ (The (+), (++), (+++) and (++++) scores are given for maximal ELISA values of 0.3 to 1, 1 to 2, 2 to 3 and above 3, respectively)"},
      {"measurement": "Cytotoxicity IC50", "setting": "Human pro-B NALM-6 cells", "result": 1.762, "unit": "µg/mL"},
      {"measurement": "Binding to antigens other than CDIM", "setting": "[4]", "result": "binds to all the antigens tested; also recorded: binds to all of the antigens across a broad dose range"},
      {"measurement": "Cardiolipin relative reactivity", "setting": "[5]", "result": "+++ (The (+), (++), (+++) and (++++) scores are given for maximal ELISA values of 0.3 to 1, 1 to 2, 2 to 3 and above 3, respectively)"}
    ]}
  ]
}
